From patent publication US12576050B2, “Dosage regime” (priority 2018, dated 2026) come the findings set out here.

The experiment is described as follows: In vitro mucolysis of patient sputum. The following applies: very thick/purulent sputum, patient already on Pulmozyme. The protocol: Patient had very thick/purulent sputum. The sputum from this patient was responsive to 5% cysteamine DPI formulation. Addition of DNAse I (Pulmozyme) at physiological concentration is having no effect, but this patient is already on Pulmozyme and recently had the dose tripled. The patient's sputum responded to in vitro tests with cysteamine (see FIG. 7). The sputum response was conducted in accordance with the general method outlined in EBioMedicine 2 (2015) 1507-1512 “Cysteamine as a Future Intervention in Cystic Fibrosis Against Current and Emerging Pathogens: A Patient-based ex vivo Study Confirming its Antimicrobial and Mucoactive Potential in Sputum”, Graham Devereux et al.

B1: DNAse I (Pulmozyme): DNAse I (Pulmozyme) added at physiological concentration to sputum (protein, UniProt P24855 23-282, looked up)
Deoxyribonuclease-1: LKIAAFNIQTFGETKMSNATLVSYIVQILSRYDIALVQEVRDSHLTAVGKLLDNLNQDAPDTYHYVVSEPLGRNSYKERYLFVYRPDQVSAVDSYYYDDGCEPCGNDTFNREPAIVRFFSRFTEVREFAIVPLHAAPGDAVAEIDALYDVYLDVQEKWGLEDVMLMGDFNAGCSYVRPSQWSSIRLWTSPTFQWLIPDSADTTATPTHCAYDRIVVAGMLLRGAVVPDSALPFNFQAAYGLSDQLAQAISDHYPVEVMLK
With B1, the “Response of patient sputum (mucolysis)” value was “no effect”.
